Reference: PMC4198461

Target: T1, TRPV2, Q9WUD2
T1 chain: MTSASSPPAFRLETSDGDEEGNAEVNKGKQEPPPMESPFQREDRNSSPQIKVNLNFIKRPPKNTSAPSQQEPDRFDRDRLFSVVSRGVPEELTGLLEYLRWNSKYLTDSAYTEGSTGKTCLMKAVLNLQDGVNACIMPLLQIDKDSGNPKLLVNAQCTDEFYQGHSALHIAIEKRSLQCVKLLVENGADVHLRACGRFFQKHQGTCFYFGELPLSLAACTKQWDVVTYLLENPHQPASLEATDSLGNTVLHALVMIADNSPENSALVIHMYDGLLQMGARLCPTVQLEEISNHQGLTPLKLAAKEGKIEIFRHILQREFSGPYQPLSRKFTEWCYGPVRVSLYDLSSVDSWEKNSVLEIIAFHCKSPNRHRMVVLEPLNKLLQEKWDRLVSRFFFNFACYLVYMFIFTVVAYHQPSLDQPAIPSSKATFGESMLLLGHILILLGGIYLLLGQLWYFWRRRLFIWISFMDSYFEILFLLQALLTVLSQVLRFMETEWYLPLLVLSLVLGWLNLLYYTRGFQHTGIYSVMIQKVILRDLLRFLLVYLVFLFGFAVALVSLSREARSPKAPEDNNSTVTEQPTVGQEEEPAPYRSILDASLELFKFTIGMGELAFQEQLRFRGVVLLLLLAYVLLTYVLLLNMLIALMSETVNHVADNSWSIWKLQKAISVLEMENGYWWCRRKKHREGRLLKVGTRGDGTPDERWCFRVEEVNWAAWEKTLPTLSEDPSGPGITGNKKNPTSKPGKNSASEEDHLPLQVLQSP
Experiment: SEC + native gel or EMSA + other: negative-stain EM
Settings: remark: other sources report otherwise

- stoichiometry N: 4
B1: TRPV2, Q9WUD2 1-761 (natural protein)
chain: MTSASSPPAFRLETSDGDEEGNAEVNKGKQEPPPMESPFQREDRNSSPQIKVNLNFIKRPPKNTSAPSQQEPDRFDRDRLFSVVSRGVPEELTGLLEYLRWNSKYLTDSAYTEGSTGKTCLMKAVLNLQDGVNACIMPLLQIDKDSGNPKLLVNAQCTDEFYQGHSALHIAIEKRSLQCVKLLVENGADVHLRACGRFFQKHQGTCFYFGELPLSLAACTKQWDVVTYLLENPHQPASLEATDSLGNTVLHALVMIADNSPENSALVIHMYDGLLQMGARLCPTVQLEEISNHQGLTPLKLAAKEGKIEIFRHILQREFSGPYQPLSRKFTEWCYGPVRVSLYDLSSVDSWEKNSVLEIIAFHCKSPNRHRMVVLEPLNKLLQEKWDRLVSRFFFNFACYLVYMFIFTVVAYHQPSLDQPAIPSSKATFGESMLLLGHILILLGGIYLLLGQLWYFWRRRLFIWISFMDSYFEILFLLQALLTVLSQVLRFMETEWYLPLLVLSLVLGWLNLLYYTRGFQHTGIYSVMIQKVILRDLLRFLLVYLVFLFGFAVALVSLSREARSPKAPEDNNSTVTEQPTVGQEEEPAPYRSILDASLELFKFTIGMGELAFQEQLRFRGVVLLLLLAYVLLTYVLLLNMLIALMSETVNHVADNSWSIWKLQKAISVLEMENGYWWCRRKKHREGRLLKVGTRGDGTPDERWCFRVEEVNWAAWEKTLPTLSEDPSGPGITGNKKNPTSKPGKNSASEEDHLPLQVLQSP
